Assay in all cases: SEC
(Size exclusion chromatography separates by hydrodynamic size, large species first.)

Series [1] deals with Sso MCM AAA+ core domain (Sulfolobus solfataricus).
Series [2] deals with Sso MCM C-half (C-terminal half, AAA+ and HTH domains) (Sulfolobus solfataricus).
Series [3] has as its target Sso MCM ▵A (lacking the N-terminal A domain) (Sulfolobus solfataricus).
Series [4] has as its target Sso MCM ▵A/HTH (lacking both the A domain and the HTH domain) (Sulfolobus solfataricus).
Series [5] deals with the molecule itself.

The stoichiometry N is the number of molecules, sites or subunits per partner or assembly.

“And” between values parts separate entries of the source, which are not always exact repeats. Equal entries are not always repeated. A value given as a limit tells only on which side of the number the result lay.

Molecule “Sso MCM AAA+ core domain (domain or fragment)” yielded a stoichiometry N in series [1] of 2.

“Sso MCM C-half (C-terminal half, AAA+ and HTH domains) (domain or fragment)” registered a stoichiometry N in series [2] of 2.

Consider “Sso MCM ▵A (lacking the N-terminal A domain) (domain or fragment)”, for which, in series [3], the stoichiometry N was 6.

Consider “Sso MCM ▵A/HTH (lacking both the A domain and the HTH domain) (domain or fragment)”, for which the stoichiometry N in series [4] was 6.

B1: Sulfolobus solfataricus MCM, full-length, wild-type (natural protein)
chain: MEIPSKQIDYRDVFIEFLTTFKGNNNQNKYIERINELVAYRKKSLIIEFSDVLSFNENLAYEIINNTKIILPILEGALYDHILQLDPTYQRDIEKVHVRIVGIPRVIELRKIRSTDIGKLITIDGILVKVTPVKERIYKATYKHIHPDCMQEFEWPEDEEMPEVLEMPTICPKCGKPGQFRLIPEKTKLIDWQKAVIQERPEEVPSGQLPRQLEIILEDDLVDSARPGDRVKVTGILDIKQDSPVKRGSRAVFDIYMKVSSIEVSQKVLDEVIISEEDEKKIKDLAKDPWIRDRIISSIAPSIYGHWELKEALALALFGGVPKVLEDTRIRGDIHILIIGDPGTAKSQMLQFISRVAPRAVYTTGKGSTAAGLTAAVVREKGTGEYYLEAGALVLADGGIAVIDEIDKMRDEDRVAIHEAMEQQTVSIAKAGIVAKLNARAAVIAAGNPKFGRYISERPVSDNINLPPTILSRFDLIFILKDQPGEQDRELANYILDVHSGKSTKNIIDIDTLRKYIAYARKYVTPKITSEAKNLITDFFVEMRKKSSETPDSPILITPRQLEALIRISEAYAKMALKAEVTREDAERAINIMRLFLESVGVDMESGKIDIDTIMTGKPKSAREKMMKIIEIIDSLAVSSECAKVKDILKEAQQVGIEKSNIEKLLTDMRKSGIIYEAKPECYKKV
For the molecule B1, in series [5], the “stoichiometry N” value was ≤ 12 and 6.

These data come from PMC1807962 (Nucleic Acids Research, 2007).
